Stoichiometry N and Km data for two molecules are collected here from paper PMC11556721, “A novel esterase regulates Klebsiella pneumoniae hypermucoviscosity and virulence” (PLOS Pathogens, 2024).

Test [1] has as its target recombinant KpACE (Klebsiella pneumoniae Acetylated CPS Esterase) (Klebsiella pneumoniae ATCC43816). Kind of test: SEC; Superdex 200; rKpACE peak at 14.38 mL (75.6 kDa); predicted monomer 43.1 kDa.
Test [2] concerns T1, rKpACE (KpACE, Klebsiella pneumoniae Acetylated CPS Esterase).
T1 construct: signal peptide (1-21) removed; N-terminal 6xHis tag; pET-28a, E. coli BL21(DE3)
Kind of test: acetylesterase assay, Michaelis-Menten fit. Type of test: biochemical. The conditions noted are these: pH 7.4.

For the molecule “recombinant KpACE (Klebsiella pneumoniae Acetylated CPS Esterase) (enzyme)”, in test [1], the stoichiometry N (commonly the number of molecules, sites or subunits per partner or assembly) was 2.

Take `CC(=O)Oc1ccc2c(C)cc(=O)oc2c1` [4-MU-Ac, 4-methylumbelliferyl acetate]: the Km (in general, the concentration of substrate that gives half-maximal velocity) in test [2] amounted to 160 ± 30 µM.
